# Assay results from IntAct's records for PubMed 15023544.
# B1: 14-3-3 protein zeta/delta (Homo sapiens), P63104 (parent)
# chain: MDKNELVQKAKLAEQAERYDDMAACMKSVTEQGAELSNEERNLLSVAYKNVVGARRSSWRVVSSIEQKTEGAEKKQQMAREYREKIETELRDICNDVLSLLEKFLIPNASQAESKVFYLKMKGDYYRYLAEVAAGDDKKGIVDQSQQAYQEAFEISKKEMQPTHPIRLGLALNFSVFYYEILNSPEKACSLAKTAFDEAIAELDTLSEESYKDSTLIMQLLRDNLTLWTSDTQGDEAEAGEGGEN
# Variants of: B1
# Details: with m3k5_human MAP3K5, Q99683
# m3k5_human MAP3K5, Q99683, sequence (Q99683 whole entry): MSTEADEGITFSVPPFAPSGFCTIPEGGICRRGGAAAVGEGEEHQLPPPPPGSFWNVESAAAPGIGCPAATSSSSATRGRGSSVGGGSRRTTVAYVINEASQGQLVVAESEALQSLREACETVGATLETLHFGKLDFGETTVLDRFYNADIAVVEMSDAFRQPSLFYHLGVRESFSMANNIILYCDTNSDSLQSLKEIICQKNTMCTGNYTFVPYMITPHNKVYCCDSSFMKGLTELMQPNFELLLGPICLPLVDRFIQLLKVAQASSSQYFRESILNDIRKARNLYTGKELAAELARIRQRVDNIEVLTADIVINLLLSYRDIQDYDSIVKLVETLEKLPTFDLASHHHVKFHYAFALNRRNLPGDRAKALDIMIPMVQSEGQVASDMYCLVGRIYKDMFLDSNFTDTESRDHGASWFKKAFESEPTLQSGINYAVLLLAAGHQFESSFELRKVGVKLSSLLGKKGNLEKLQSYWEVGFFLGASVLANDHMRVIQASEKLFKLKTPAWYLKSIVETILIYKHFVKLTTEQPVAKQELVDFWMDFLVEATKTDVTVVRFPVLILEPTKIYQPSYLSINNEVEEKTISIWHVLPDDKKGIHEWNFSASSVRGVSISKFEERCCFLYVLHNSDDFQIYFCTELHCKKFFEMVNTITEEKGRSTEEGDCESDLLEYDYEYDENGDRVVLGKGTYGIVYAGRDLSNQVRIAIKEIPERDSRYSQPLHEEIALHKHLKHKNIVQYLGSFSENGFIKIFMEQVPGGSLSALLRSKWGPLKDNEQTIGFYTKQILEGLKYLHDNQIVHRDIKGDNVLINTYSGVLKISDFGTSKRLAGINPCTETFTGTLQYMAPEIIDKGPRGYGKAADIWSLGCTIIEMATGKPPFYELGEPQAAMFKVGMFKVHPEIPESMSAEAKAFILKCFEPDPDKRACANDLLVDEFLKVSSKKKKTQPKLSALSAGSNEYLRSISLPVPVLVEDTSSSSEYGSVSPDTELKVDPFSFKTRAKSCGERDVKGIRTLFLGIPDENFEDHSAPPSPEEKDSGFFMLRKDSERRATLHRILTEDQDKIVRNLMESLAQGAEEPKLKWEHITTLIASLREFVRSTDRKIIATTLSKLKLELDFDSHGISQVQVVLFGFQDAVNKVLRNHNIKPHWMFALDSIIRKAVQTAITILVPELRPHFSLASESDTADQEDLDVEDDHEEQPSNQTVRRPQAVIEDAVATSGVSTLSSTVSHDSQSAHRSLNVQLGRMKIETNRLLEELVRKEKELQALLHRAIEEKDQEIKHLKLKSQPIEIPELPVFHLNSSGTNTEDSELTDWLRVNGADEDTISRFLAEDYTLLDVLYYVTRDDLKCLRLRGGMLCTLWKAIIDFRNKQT
row,Variant,effect of a mutation on the interaction
1,K49E;R56E;R60E;V176D;L220E,decreasing interaction
